Assay results reported in publication PMC3518592 (Structure (London, England : 1993), 2012).

Columns and labels:
[1] = biological target: T1, ubiquitin (D77) (UniProt P0CG48 1-76, D77); assay: NMR titration
[2] = biological target: T1, ubiquitin (D77); assay: ITC
[3] = biological target: T1, ubiquitin (D77); assay: ITC; remark: listed apart in the source

B1: gp78CUE domain (453–504) (domain or fragment, human, UniProt Q9UKV5 453-504, looked up)
chain: SNSQLNAMAHQIQEMFPQVPYHLVLQDLQLTRSVEITTDNILEGRIQVPFPT
In the case of B1, the Kd [1] is reported as 13.6 ± 12 µM, the dH [2] is reported as -3.418 ± 0.0239 kcal/mol and the “stoichiometry N” value [2] is reported as 0.91. The Kd [3] was 12.8 ± 0.7 µM.
